Test results published in US20200164059A1.
Positions count from the first letter of the chain named. Numbers in names are those of the source.

B1: AMMO1 containing a Q1N heavy chain mutation (antibody, V domains shown)
VH: NVQLVQSGADVKKPGASVKVSCKASGYTFIHFGISWVRQAPGQGLEWMGWIDTNNGNTNYAQSLQGRVTMTTDTSTGTAYMELRSLSTDDTAVYFCARALEMGHRSGFPFDYWGQGVLVTVSP
VL: SYELTQPPSVSVAPGQRATITCGGHNIGAKNVHWYQQKPGQAPVLVIQYDSDRPSGIPERFSGSNSGSTATLTISRVEAGDEADYYCQVWDSGRGHPLYVFGGGTKVTVL
B2: AMMO1 Fab (Fab, V domains shown)
VH: B1 VH with N1Q
VL: B1 VL
modifications: not checked

What was measured:
[1] = biological target: EBV gH/gL heterodimer, recombinant ectodomain (Epstein Barr virus); test: BLI kinetics, pH 7.4, ligand AMMO1Q1NHC Mab, analyte gH/gL; kon (1/Ms) x10^5
[2] = biological target: EBV gH/gL heterodimer, recombinant ectodomain (Epstein Barr virus); test: BLI kinetics, pH 7.4, ligand AMMO1Q1NHC Mab, analyte gH/gL; koff (1/s) x10^-3
[3] = biological target: EBV gH/gL heterodimer, recombinant ectodomain (Epstein Barr virus); test: BLI kinetics, pH 7.4, ligand AMMO1Q1NHC Mab, analyte gH/gL; KA M^-1 x10^7
[4] = biological target: EBV gH/gL heterodimer, recombinant ectodomain (Epstein Barr virus); test: BLI kinetics, pH 7.4, ligand AMMO1Q1NHC Mab, analyte gH/gL; KD M x10^-9
[5] = biological target: T1, EBV gH/gL heterodimer, recombinant ectodomain (Epstein Barr virus); test: BLI kinetics, pH 7.4, ligand gH/gL, analyte AMMO1 Fab; KD M x10^-9
[6] = biological target: T1, EBV gH/gL heterodimer, recombinant …; test: BLI kinetics, pH 7.4, ligand gH/gL, analyte AMMO1 Fab; KA M^-1 x10^7

Row | Binder | kon [1] [M⁻¹ s⁻¹] | koff [2] [s⁻¹] | Ka [3] [M⁻¹] | Kd [4] [nM] | Kd [5] [nM] | Ka [6] [M⁻¹]
1 | B1 | 244000 | 3.85e-05 | 6.34e+09 | 0.16 | – | –
2 | B2 | – | – | – | – | 0.12 | 8.12e+09
